B1: ADI-43646 (antibody, V domains shown)
VH: EMQLMQSGGVVVQPGGSLRLSCAASGFTFDDYAMHWVRQAPGKGLEWVSLISWDGGSTYYADSVKGRFTISRDNSKNSLYLQMNSLRAEDTALYYCAKDFDPLVVPAAMCFDYWGQGTLVTVSS
VL: QSVLIQPASVSGSPGQSITISCTGTSSDVGGYNYVSWYQQHPGKAPKLMIYDVSNRPSGVSNRFSGSKSGNTASLTISGLQAEDEADYYCSSYTSSSTLYVFGTGTKLTVL
B2: ADI-43645 (antibody, V domains shown)
VH: QVQLVQSGAEVKKPGSSVKVSCKASGGTFSSYAISWVRQAPGQGLEWMGGIIPIFGTANYAQKFQGRVTITADESTSTAYMELSSLRSEDTAVYYCARGWRGGGMTGSYYYYGMDVWGQGTTVTVSS
VL: DIQVTQTPSTLSASVGDRVTITCRASQSISSWLAWYQQKPGKAPKLLIYKASSLESGVPSRFSGSGSGTEFTLTISSLQPDDFATYYCQQHRGTFGQGTKVDIK
notes: also called Ab 826; Antibody Number 826
B3: ADI-41827 (antibody, V domains shown)
VH: EVQLSESAGGVVQPGGSLRLTCAASGFSFSTNGMHWVRQAPGKGLEWVAFIRYDGSKKYYAESVKGRFTISREDSNNTLYLQMNSLRPEDTAVYYCAKEDCSGGTCYHERNYYYYGMDVWGQGTTVTVSS
VL: QPVLTQPPSLPVSPGQTASITCSGDKLEYKYACWYQHKPGQSPVLVIYQDNKRPSGIPERFSGSNSGNTATLTISGTQPMDEADYYCQAWDSSTVVFGGGTKVTVL
B4: ADI-41820 (antibody, V domains shown)
VH: EVQLVESGGGVVQPGRSLRLSCAVSGFTFSTYGMHWVRQTPGRGLEWVAVISYDGNHKYYADSVMGRFTISRDNSKDTLYLQVNSLRPEDSAVYYCAKDRIHCPNGVCYVHSSFYGLDVWGQGTTVTVSS
VL: QTVVTQEPSLTVSPGGTVTLTCGSSTGAVTSGHYPYWLQQKPGQAPRTLIYDTTNKDSWTPARFSGSLLGGKAALTLSGAQPEDEAQYYCLLSFNGPYWVFGGGTKVTVL
notes: also called Ab 926; Antibody Number 926
B5: ADI-41815 (antibody, V domains shown)
VH: EVQLLESGGGLVKPGGSLRLSCGASGFTFSTSSFNWVRQAPGKGLEWVSSISSTSSYVFYADSVKGRFTVSRDNAQNSLYLQMNSLRAEDTAVYYCARARGVGATIGFDYWGQGTLVTVSS
VL: not shown
notes: also called Ab 922; Antibody Number 922
B6: ADI-21085 (antibody, V domains shown)
VH: EVQLVETGGGLVKPGGSLRLSCEASGFNFRSYSMNWVRQAPGKGLEWVSSISASSSYINYADSVKGRFTISRDNSKNSLYLQMNSLRAEDTGVYYCARVLVHYYYGMDVWGQGTTVTVSS
VL: QSVLTQPPSVSAAPGQRVTISCTGTSSNIGAGYDVHWYQQLPGRAPKLLILGNNNRPSGVPDRFSGSKSGTSASLAITGLQAEDEADYYCQTYDKTLMEIFGGGTKLTVL
notes: also called Ab 330
B7: ADI-21068 (antibody, V domains shown)
VH: QVQLQESGPGLVKPSGTLSLTCVVSGGSIKSHNYWTWVRQPPGKGLEWVGEIYQSGRTNYNPSLNSRVTLSMDKSKNQLSLRLTSVTAADTAVYFCVGGGPFAPYYFQTWGQGTLVTVSS
VL: QSVLTQPPSVSGAPGQRVTISCTGSSSNIGAGYDVHWYQQLPGTAPKLLIYNNNNRPSGVPDRFSGSKSGTSASLAITGLQAEDEADYYCQSYDTSLSGYVFGTGTKVTVL
B8: ADI-21083 (antibody, V domains shown)
VH: QVQLQESGPGLVKPSGTLSLTCAVSGDSITTSNWWSWVRQPPGKGLEWIGEIYHSGVTRYNPSLKSRLSISLDKSRNQFSLKLSSVTAADTAVYYCARDEALFGHWFDPWGQGTLVTVSS
VL: QSVLTQPRSVSGSPGQSVTISCTGSSSDIGSYNYVSWYQQHPGKAPKLMLYDVSKRPSGVPDRFSGSKSVKTASLTISGLQAEDEADYYCCTYAGNSVVFGGGTKLTVL
B9: ADI-21076 (antibody, V domains shown)
VH: EVQLVESGGGLVRPGGSLRLSCAASGFTFSSYAMDWVRQAPGKGLEWVSSISASSSFISYTDSVKGRFTISRDNAKNSLFLQMDNVTAEDTAVYYCARDYYESGRYFYGNPFDIWGQGTMVTVSS
VL: QPVLTQPPSVSGAPGQRVTISCTGSGSNIGAGFDVHWYQQLPGTAPKLLIYANSDRPSGVPDRFSASKSGTSASLAITGLQAEDEAHYYCQSYDNSLGGLCVFGTGTKLTVL
B10: ADI-21091 (antibody, V domains shown)
VH: QVQLVQSGAEVKKPGESLRISCQYSAYGFSTYWISWVRQLPGKGLEWMGRIDPSDSHTTYSPSFQGHVTLSADKSISTVYLQWSSLKASDTAMYYCARHQEYSGSDLDSWGQGTLVTVSS
VL: QPVLTQPPSVSAAPGQRVTISCSGTRSNIGYNFVSWYQQLPGTAPKLLIYDNNKRPSGIPDRFSGSKSGTSATLAITGLQTGDEADYYCGTWDSSLSALFGGGTKVTVL
B11: ADI-21084 (antibody, V domains shown)
VH: EVQLVESGAEVKKPGASVTVSCKASGYTFTSNTISWLRQAPGQGLEWLGWVSASNGNTKYAQKFQGRVTMTTDTSATTAYMEVRTLRHDDTAIYYCARDILDMGGFHFDNWGQGTLVTVSS
VL: SYVLTQPPSVSVAPGQTARITCGGNNIGNKHVHWYKQKPGQAPVLVVYDDSDRPSGIPERFSGSNSGNTATLTVSRVEAGDEADFYCQVWDNTNDHPVFGGGTKVTVL
B12: ADI-21073 (antibody, V domains shown)
VH: EVQLVESGGGLVRPGRSLRLSCAASGFTFSMFSMNWVRQAPGKGLEWLAYIGGSGSTIDYANSVSGRFTISRDNAKNSLYLQMNSLRDEDTAVYYCARIGLQTYNSHSSSSSPARAFDVWGQGTTVTVSS
VL: DIVLTQSPSSLSASVGDRVTITCRASQSIGRFLNWYQQKPGKAPKLLIYAASSLESGVPSRFSGSGSGTQFSLTISSLQPEDFTTYYCQQSYSTPTTFGGGTKVDIK
B13: ADI-21070 (antibody, V domains shown)
VH: EVQLVESGGGLVQPGGSLRLSCAASGFTFSRYAMGWVRQAPGKGLEWVSTISDSGGSTFYADSVEGRFTIARDSSKNTLSLHMNSLRAEDTAIYYCAREAYSSSWYSGGWFDRWGQGTLVTVSS
VL: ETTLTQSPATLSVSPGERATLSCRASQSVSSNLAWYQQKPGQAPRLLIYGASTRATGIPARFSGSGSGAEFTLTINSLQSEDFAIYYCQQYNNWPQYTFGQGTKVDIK
B14: ADI-21090 (antibody, V domains shown)
VH: EVQLLESGGGLVKPGGSLRLSCAASGFTSGFTFSDFYMSWIRLTPGKGLEWISYISTHSTSTNYADSVRGRFIISRDDARNSLFLQMNSLRAEDTAVYYCAGYYYGSGSYFFDHWGQGTLVTVSS
VL: ETTLTQSPATLSVSPGERATLSCRASQSVSSNVAWYQQKPGQAPRLLIYSASSRDTGIPVRFSGSGSGTEFTLSISSLQSEDFAVYYCQQYSDWPTFGQGTKVEIK
B15: ADI-21087 (antibody, V domains shown)
VH: EVQLVESGGGLVQPGGSLRLSCAASGFTFSGYEMNWVRQAPGKGLEWLSYISSSGGIIYYADSVKGRFTISRDNARNSLFLQMNSLRAEDTAVYSCARARLLDGFDIWGQGTMVTVSS
VL: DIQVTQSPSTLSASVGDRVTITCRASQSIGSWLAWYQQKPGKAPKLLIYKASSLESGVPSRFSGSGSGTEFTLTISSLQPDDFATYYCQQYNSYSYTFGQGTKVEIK
B16: ADI-21071 (antibody, V domains shown)
VH: EVQLVESGGGVVQPGKSLRLSCAVSGFTFSDHDMHWVRQAPGKGLEWVAAIWSDRTTKYYGDFVKGRFTISRDNSKNTLYLQMNSLRAEDTAVYYCARGQIYKSGGYYLVHLDHWGQGTLVTVSS
VL: DIQVTQSPSSLSASVGDRVTITCRASQSIASYLNWYQQKPGKAPNLLIYAASNLQSEVPSRFSGSGSGTDFTLTISGLQPEDFATYYCQQSYNIRLLTFGGGTKVEIK

Target: RSV F on RSV-A2 virus (Respiratory Syncytial Virus (RSV-A2), UniProt P03420 26-574)
Experiment: cell-based or functional assay

B1 and B2 cannot be ordered by “Neutralization IC50 (RSV subtype A)” value: over 25 µg/mL for the first, over 25 µg/mL for the second.

Target: RSV F on RSV subtype A virus (RSV-A2) (Respiratory Syncytial Virus, subtype A, …, UniProt P03420 26-574)
Experiment: cell-based or functional assay

B3 and B4 cannot be ordered by “Neutralization IC50 (RSV subtype A)” value: over 25 µg/mL for the first, over 25 µg/mL for the second.

In the case of B5, the “Neutralization IC50 (RSV subtype A)” value is reported as over 25 µg/mL.

Target: RSV postfusion F (postF), F ΔFP trimer, subtype A (Respiratory Syncytial Virus, subtype A, UniProt P03420 26-513)
Experiment: BLI, IgG on anti-human IgG sensors

B3: no binding (tested: 100 nM antigen).
B4: no binding (tested: 100 nM antigen).
B5: no binding (tested: 100 nM antigen).

Target: RSV postfusion F (postF), F ΔFP (Respiratory Syncytial Virus, UniProt P03420 26-513)
Experiment: BLI, IgG on anti-human IgG sensor

B1: no binding.
B2: no binding.

Target: RSV F on recombinant mKate-RSV A2 virus (Respiratory syncytial virus A2, UniProt P03420 26-574)
Experiment: cell-based or functional assay

Point of comparison: B8, “Neut IC50 (ug/ml) subtype A” value 0.36 µg/mL. Against it:
- B6 — 3.6-fold lower, 0.1 µg/mL
- B7 — 3.6-fold lower, 0.1 µg/mL
- B9 — 12-fold lower, 0.03 µg/mL
- B10 — within 1.5-fold, 0.29 µg/mL
- B11 — 2.6-fold lower, 0.14 µg/mL

Target: RSV F on recombinant mKate-RSV B 18537 virus (Respiratory syncytial virus B 18537, UniProt P13843 26-574)
Experiment: cell-based or functional assay

Point of comparison: B9, “Neut IC50 (ug/ml) subtype B” value 0.3 µg/mL. Against it:
- B6 — 1.6-fold higher, 0.48 µg/mL
- B12 — 37-fold higher, 11.2 µg/mL
- B8 — 2.6-fold higher, 0.79 µg/mL
- B10 — 3.1-fold higher, 0.92 µg/mL
- B11 — 1.5-fold higher, 0.46 µg/mL
- B13 — 7.9-fold higher, 2.38 µg/mL

Target: RSV prefusion F (preF), DS-Cav1 (Respiratory Syncytial Virus, UniProt P03420 26-513)
Experiment: BLI, IgG on anti-human IgG sensor, 100 nM antigen, 1:1 fit

Point of comparison: B1, Kd 5.34 nM. Against it:
- B2 — 1.6-fold higher, 8.7 nM

Target: RSV prefusion F (preF), DS-Cav1 stabilized trimer, subtype A (Respiratory Syncytial Virus, subtype A, UniProt P03420 26-513)
Experiment: BLI, IgG on anti-human IgG sensors, 100 nM antigen, apparent KD

Point of comparison: B5, Kd 3.21 nM. Against it:
- B3 — 17-fold lower, 0.186 nM
- B4 — 20-fold higher, 64.9 nM

Target: RSV prefusion F, subtype A (preF, DS-Cav1 trimer) (Respiratory syncytial virus subtype A, UniProt P03420 26-513)
Experiment: BLI, IgG apparent affinity

Point of comparison: B10, Kd 0.749 nM. Against it:
- B6 — 2.4-fold lower, 0.307 nM
- B12 — 5.4-fold higher, 4.06 nM
- B7 — 2.9-fold lower, 0.255 nM
- B14 — 1.6-fold higher, 1.17 nM
- B8 — 3-fold higher, 2.25 nM
- B9 — 3.4-fold lower, 0.219 nM
- B11 — 6.9-fold lower, 0.109 nM
- B16 — 1.6-fold higher, 1.17 nM
- B13 — 7.2-fold higher, 5.37 nM

B15: no binding.

Target: T1, RSV postfusion F, subtype B (postF trimer) (Respiratory syncytial virus subtype B, UniProt P13843 26-513)
T1 construct: also called Postfusion subtype B
Experiment: BLI, IgG apparent affinity

Point of comparison: B16, Kd 1.38 nM. Against it:
- B6 — 4.5-fold higher, 6.24 nM
- B12 — 2-fold lower, 0.675 nM
- B7 — 5.7-fold higher, 7.85 nM
- B14 — 7.9-fold lower, 0.175 nM
- B9 — 4.6-fold higher, 6.28 nM
- B15 — 2.9-fold lower, 0.476 nM
- B11 — 17-fold higher, 22.9 nM

B8: no binding.
B10: no binding.
B13: no binding.

Target: T2, RSV postfusion F, subtype A (postF, F ΔFP trimer) (Respiratory syncytial virus subtype A, UniProt P03420 26-513)
T2 construct: also called Postfusion subtype A
Experiment: BLI, IgG apparent affinity

B6: no binding.
B8: no binding.
B10: no binding.
B13: no binding.

Point of comparison: B11, Kd 17.3 nM. Against it:
- B12 — 30-fold lower, 0.58 nM
- B7 — within 1.5-fold, 15.5 nM
- B14 — 98-fold lower, 0.176 nM
- B9 — 2.4-fold lower, 7.34 nM
- B15 — 32-fold lower, 0.545 nM
- B16 — 80-fold lower, 0.216 nM

From patent US20260258115A1 (MAPP BIOPHARMACEUTICAL, published 2026)
